# Experimental data as given in article PMC3804487, “DNA Aptamers Selectively Target Leishmania infantum H2A Protein”.
# T1: rLiH2A (histone H2A) (Leishmania infantum, UniProt Q9BJC8 1-132)
# T1 sequence: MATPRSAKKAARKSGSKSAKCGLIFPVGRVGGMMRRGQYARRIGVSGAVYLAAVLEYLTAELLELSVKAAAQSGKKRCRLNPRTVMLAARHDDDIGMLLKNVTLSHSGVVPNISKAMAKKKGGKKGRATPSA
# Target: T1, rLiH2A (histone H2A)
# Assay: ELONA
# Details: protein: recombinant; tags: His (Ni-NTA purified)
row,Binder,Kd
1,AptLiH2A#2 (structured_DNA) DNA: GCGGATGAAGACTGGTGTGGAGTCTACCCTGTTTTCTAGTCTGCCATCCCTATCCCATGCCCTAAATACGAGCAAC,1.16 ± 0.28 nM
2,AptLiH2A#1 (structured_DNA) DNA: GCGGATGAAGACTGGTGTTGTGCAATGATTTTTCCGGTTGACCAGGTAGGAATTGTAGGCCCTAAATACGAGCAAC,0.96 ± 0.17 nM
